# Experimental data reported in patent US20180011085A1.
# Target: purified recombinant M1 protein from influenza virus labeled with His-tag (influenza virus)
# Test: Western blot of 0.1-10 ng M1-HisTag, HRP-conjugated antibody 1:2000, chemiluminescence
substance,measurement,value
"antibody against His-tag conjugated with horseradish peroxidase (Sigma, #A7058-1VL)",limit of detection,500 pg
